The record followed here is patent US20160264664A1.

Values joined by “and” are separate entries in the source; they are usually repeats but may differ in a detail not shown here. Equal values may be shown once.

Test [1] deals with human chemokine receptor CXCR4 (human) (UniProt P61073). The experiment in a line: flow cytometry, stable CXCR4 CAKI clone vs CAKI WT cells. Background: A flow cytometer gives signals particle by particle.
The target is the same in test [2]. The experiment in a line: flow cytometry, pVAX1-hCXCR4 transfected HEK293 vs non-transfected HEK293 cells.
Test [3] has the same target. The experiment in a line: flow cytometry, 12G5 then PE goat anti-mouse IgG, on the stable CAKI/CXCR4 clone; the control panel CAKI WT prints MCF:1089.
Test [4] has the same target. The experiment in a line: flow cytometry, 12G5 then PE goat anti-mouse IgG, on HEK293 cells transiently transfected with pVAX1-CXCR4; the control panel HEK293 WT prints MCF:3918.
Test [5] concerns the target T1, mouse P2X7 (mouse) (UniProt Q9Z1M0).
T1 sequence: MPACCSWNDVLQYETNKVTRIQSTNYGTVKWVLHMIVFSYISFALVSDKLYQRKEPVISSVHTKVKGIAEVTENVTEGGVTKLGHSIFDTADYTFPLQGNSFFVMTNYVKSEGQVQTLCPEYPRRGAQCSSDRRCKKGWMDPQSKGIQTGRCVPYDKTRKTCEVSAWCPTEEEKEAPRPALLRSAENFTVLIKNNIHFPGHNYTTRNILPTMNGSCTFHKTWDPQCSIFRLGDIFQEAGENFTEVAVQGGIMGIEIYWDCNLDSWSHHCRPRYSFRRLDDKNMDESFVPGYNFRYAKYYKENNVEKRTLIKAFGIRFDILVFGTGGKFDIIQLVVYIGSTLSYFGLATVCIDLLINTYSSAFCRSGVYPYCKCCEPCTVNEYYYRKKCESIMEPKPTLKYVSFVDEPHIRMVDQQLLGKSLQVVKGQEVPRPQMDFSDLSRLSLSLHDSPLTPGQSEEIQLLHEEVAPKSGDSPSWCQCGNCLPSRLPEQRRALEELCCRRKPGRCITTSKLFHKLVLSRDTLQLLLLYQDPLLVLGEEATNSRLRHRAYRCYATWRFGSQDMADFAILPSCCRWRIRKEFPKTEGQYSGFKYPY
Briefly: cell-based or functional assay.

For test [6], the target named is T1, mouse P2X7 (mouse). Briefly: flow cytometry, purified Nanobody titrated on mP2X7-CHO cells.
For test [7], the target named is human chemokine receptor CXCR4 (human) (UniProt P61073). The experiment in a line: ELISA, periplasmic extract on CXCR4 membrane vesicles, anti-Myc detection.

Sequence of human chemokine receptor CXCR4 (human) (P61073 whole entry): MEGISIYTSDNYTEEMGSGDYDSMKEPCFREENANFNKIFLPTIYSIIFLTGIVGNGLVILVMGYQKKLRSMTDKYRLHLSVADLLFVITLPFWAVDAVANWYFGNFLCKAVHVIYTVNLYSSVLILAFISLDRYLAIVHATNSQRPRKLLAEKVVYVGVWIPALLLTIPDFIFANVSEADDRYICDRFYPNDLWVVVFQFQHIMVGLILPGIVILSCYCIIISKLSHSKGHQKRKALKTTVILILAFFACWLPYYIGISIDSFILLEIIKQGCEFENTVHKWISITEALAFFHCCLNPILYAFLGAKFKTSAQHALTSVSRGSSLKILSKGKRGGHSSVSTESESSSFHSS

Consider “Human CXCR4 specific monoclonal antibody 12G5 (R&D Systems MAB170)”, for which, in test [1], the fluorescence shift over non-transfected camelid cells worked out at 114 fold. The fluorescence intensity shift of transfected over non-transfected cells in test [2] came out at 38 fold. The MCF in test [3] is 125000; in test [4] it was 152000.

As for irrelevant control Nanobody (VHH), in the test with mouse P2X7 (mouse) [5], the percentage of cells remaining CD62L positive after ATP or NAD (Yac-1 cells, control) is 2% and 20%. This substance had a maximum MCF value with mouse P2X7 (mouse) [6] of 314 to 355 MCF. Further, the ELISA signal on hCXCR4 membrane vesicles over control membrane vesicles in test [7] amounted to 1.1.
